± gives the uncertainty stated by the source.
Test: self-splicing fitness, log relative to wild type (ln ratio); higher = more splicing; Tetrahymena group I intron in knt gene, E. coli kanamycin selection, DiMSum; sequences stand for … in CUCUCU…GGAGGGAAAAGUUAUCAGGCAUGCACCUGGUAGCUAGUCUUUAAACCAAUAGAUUGCAUCGGUUUAAAAGGCAAGACCGUCAAAUUGCGGGAAAGGGGUCAACAGCCGUUCAGUACCAAGUCUCAGGGGAAACUUUGAGAUGGCCUUGCAAAGGGUAUGGUAAUAAGCUGACGGACAUGGUCCUAACCACGCAGCCAAGUCCUAAGUCAACAGAUCUUCUGUUGAUAUGGAUGCAGUUCACAGACUAAAUGUCGGUCGGGGAAGAUGUAUUCUUCUCAUAAGAUAUAGUCGGACCUCUCCUUAAUGGGAGCUAGCGGAUGAAGUGAUGCAACACUGGAGCCGCUGGGAACUAAUUUGUAUGCGAAAGUAUAUUGAUUAGUUUUGGAGUACUCGUGGUCG
Procedure, shortened: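 Pooled colonies went to amplicon sequencing on an Illumina HiSeq 2500 after six replicate transformations. The plates were LB agar with 100 μg/mL carbenicillin, 50 μM IPTG and 0.2% rhamnose, with or without 25 μg/mL kanamycin, incubated overnight at 37°C or 30°C. The E. coli BL21(DE3) library had all eight P1ex-region intron nucleotides randomised, the intron placed in the knt kanamycin-resistance gene on pET-22b(+). DiMSum fitness is the error-weighted combination of replicate fold changes, kanamycin against none, normalised to wild type.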

| Sequence | self-splicing fitness (ln) (30 °C) | self-splicing fitness (ln) (37 °C) |
| --- | --- | --- |
| CCUGAGCAAUAUUACGCGGG | -3.41 ± 0.26 | -2.22 ± 0.34 |
| CCUGAGCAAUAUUACGCUAA | -3.04 ± 0.2 | -2.88 ± 0.25 |
| CCUGAGCAAUAUUACGCUUG | – | -1.23 ± 0.28 |
| CCUGAGCAAUAUUACGGAAA | -3.53 ± 0.35 | -1.92 ± 0.28 |
| CCUGAGCAAUAUUACGGCAG | -2.92 ± 0.34 | -0.802 ± 0.17 |
| CCUGAGCAAUAUUACGGCGA | -3.62 ± 0.46 | -2.62 ± 0.38 |
| CCUGAGCAAUAUUACGGGUA | -2.9 ± 0.27 | -2.07 ± 0.31 |
| CCUGAGCAAUAUUACGGGUG | -2.65 ± 0.12 | -1.81 ± 0.14 |
| CCUGAGCAAUAUUACGGUUC | -3.21 ± 0.23 | -3.06 ± 0.4 |
| CCUUAGCAAUAUUACGAAGU | -2.21 ± 0.15 | -1.93 ± 0.12 |
| CCUUAGCAAUAUUACGACUU | -3.8 ± 0.35 | -2.73 ± 0.32 |
| CCUUAGCAAUAUUACGAGAC | – | -1.83 ± 0.25 |
| CCUUAGCAAUAUUACGAGAU | -2.62 ± 0.26 | -2.79 ± 0.21 |
| CCUUAGCAAUAUUACGAGCC | -3.38 ± 0.34 | – |
| CCUUAGCAAUAUUACGAUUU | -4.25 ± 0.42 | -2.44 ± 0.35 |
| CCUUAGCAAUAUUACGCAAC | – | -2.04 ± 0.48 |
| CCUUAGCAAUAUUACGCAGU | -3.81 ± 0.23 | -2.32 ± 0.23 |
| CCUUAGCAAUAUUACGCAUG | -3.78 ± 0.19 | -2.14 ± 0.18 |

| Sequence | self-splicing fitness (ln) (30 °C) | self-splicing fitness (ln) (37 °C) |
| --- | --- | --- |
| CCUUAGCAAUAUUACGCCGU | -2.66 ± 0.22 | -2.18 ± 0.24 |
| CCUUAGCAAUAUUACGCCUC | – | -2.65 ± 0.41 |
| CCUUAGCAAUAUUACGCGGC | -2.89 ± 0.27 | -3.63 ± 0.42 |
| CCUUAGCAAUAUUACGCUUU | -3.64 ± 0.31 | -2.46 ± 0.22 |
| CCUUAGCAAUAUUACGGAAC | – | -2.73 ± 0.44 |
| CCUUAGCAAUAUUACGUCAC | -3.46 ± 0.26 | -2.21 ± 0.29 |
| CCUUAGCAAUAUUACGUCAU | -3.85 ± 0.21 | -2.96 ± 0.24 |
| CCUUAGCAAUAUUACGUGCU | -3.4 ± 0.18 | -2.83 ± 0.31 |
| CCUUAGCAAUAUUACGUGGC | -4.19 ± 0.31 | -2.88 ± 0.31 |
| CCUUAGCAAUAUUACGUGGG | -2.78 ± 0.16 | -2.35 ± 0.16 |
| CCUUAGCAAUAUUACGUUAU | -2.42 ± 0.14 | -2.45 ± 0.28 |
| CGAAAGCAAUAUUACGAAAA | -2.38 ± 0.29 | -1.32 ± 0.23 |
| CGAAAGCAAUAUUACGAAUG | -0.194 ± 0.057 | 0.263 ± 0.08 |
| CGAAAGCAAUAUUACGACGG | 0.0482 ± 0.089 | 0.569 ± 0.12 |
| CGAAAGCAAUAUUACGACUG | -0.103 ± 0.064 | -0.811 ± 0.078 |
| CGAAAGCAAUAUUACGAGCA | -2.3 ± 0.25 | -0.869 ± 0.24 |
| CGAAAGCAAUAUUACGAGCC | -2.18 ± 0.32 | -1.19 ± 0.3 |
